Measured values: article PMC3360035

Target: Human γD-crystallin V75D (human)
Sequence (P07320 2-174 V76D): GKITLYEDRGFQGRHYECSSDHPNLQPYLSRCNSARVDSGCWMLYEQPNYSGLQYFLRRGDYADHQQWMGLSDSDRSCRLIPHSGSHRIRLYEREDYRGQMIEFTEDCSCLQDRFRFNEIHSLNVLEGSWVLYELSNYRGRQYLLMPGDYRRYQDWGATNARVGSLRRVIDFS

B1: αB-crystallin, wild type (natural protein)
chain: MDIAIHHPWIRRPFFPFHSPSRLFDQFFGEHLLESDLFPTSTSLSPFYLRPPSFLRAPSWFDTGLSEMRLEKDRFSVNLDVKHFSPEELKVKVLGDVIEVHGKHEERQDEHGFISREFHRKYRIPADVDPLTITSSLSSDGVLTVNGPRKQVSGPERTIPITREEKPAVTAAPKK
For B1, the suppression of aggregation on dilution out of 5 M GdnHCl (from maximum A350), αB in 5-fold molar excess was 73%.
